Patent EP1828247B1
Where two headings read alike, the source gives them in different places.

What was measured:
[1] = target: West Nile virus strain USA99b (strain 385-99), whole virus (West Nile virus strain 385-99 (USA99b)); assay: cell-based or functional assay
[2] = target: West Nile virus strain USA99b (strain 385-99), whole virus (West Nile virus strain 385-99 (USA99b))
[3] = target: West Nile virus strain USA99b (strain 385-99), whole virus (West Nile virus strain 385-99 (USA99b)); assay: ELISA on irradiated WNV; IgG1 at 0.039 µg/ml
[4] = target: West Nile virus strain USA99b (strain 385-99), whole virus (West Nile virus strain 385-99 (USA99b)); assay: ELISA on irradiated WNV; IgG1 at 0.078 µg/ml
[5] = target: West Nile virus strain USA99b (strain 385-99), whole virus (West Nile virus strain 385-99 (USA99b)); assay: ELISA on irradiated WNV; IgG1 at 0.310 µg/ml
[6] = target: West Nile virus strain USA99b (strain 385-99), whole virus (West Nile virus strain 385-99 (USA99b)); assay: ELISA on irradiated WNV; IgG1 at 0.630 µg/ml
[7] = target: West Nile virus strain USA99b (strain 385-99), whole virus (West Nile virus strain 385-99 (USA99b)); assay: ELISA on irradiated WNV; IgG1 at 1.250 µg/ml
[8] = target: West Nile virus strain USA99b (strain 385-99), whole virus (West Nile virus strain 385-99 (USA99b)); assay: ELISA on irradiated WNV; IgG1 at 2.500 µg/ml
[9] = target: West Nile virus strain USA99b (strain 385-99), whole virus (West Nile virus strain 385-99 (USA99b)); assay: ELISA on irradiated WNV; IgG1 at 5.000 µg/ml
[10] = target: West Nile virus strain USA99b (strain 385-99), whole virus (West Nile virus strain 385-99 (USA99b)); assay: ELISA on irradiated WNV; IgG1 at 10.000 µg/ml
[11] = target: West Nile virus strain USA99b (strain 385-99), whole virus (West Nile virus strain 385-99 (USA99b)); assay: ELISA on irradiated WNV; IgG1 at 0.000 µg/ml (no antibody)
[12] = target: West Nile virus strain USA99b (strain 385-99), whole virus (West Nile virus strain 385-99 (USA99b)); assay: ELISA on irradiated WNV; IgG1 at 0.160 µg/ml (printed 0.1.60)
[13] = target: West Nile virus CAR82 (strain ArB3573/82) (West Nile virus strain ArB3573/82); assay: cell-based or functional assay
[14] = target: West Nile virus FRA00 (strain PaAn001) (West Nile virus strain PaAn001); assay: cell-based or functional assay
[15] = target: West Nile virus MAD78 (strain DakAnMg798) (West Nile virus strain DakAnMg798); assay: cell-based or functional assay
[16] = target: West Nile virus SEN90 (strain ArD-76104) (West Nile virus strain ArD-76104); assay: cell-based or functional assay
[17] = target: West Nile virus TUN97 (strain paH001) (West Nile virus strain paH001); assay: cell-based or functional assay
[18] = target: West Nile virus strain USA99b (strain 385-99), whole virus (West Nile virus strain 385-99 (USA99b)); assay: cell-based or functional assay; remark: listed apart in the source
[19] = target: West Nile virus strain USA99b (strain 385-99), whole virus (West Nile virus strain 385-99 (USA99b)); assay: ELISA on irradiated WNV; IgG1 at 20.000 µg/ml
[20] = target: West Nile virus strain USA99b (strain 385-99), whole virus (West Nile virus strain 385-99 (USA99b)); assay: ELISA on irradiated WNV; IgG1 supernatant diluted 1:5
[21] = target: West Nile virus strain USA99b (strain 385-99), whole virus (West Nile virus strain 385-99 (USA99b)); assay: ELISA on irradiated WNV; IgG1 supernatant diluted 1:25
[22] = target: West Nile virus strain USA99b (strain 385-99), whole virus (West Nile virus strain 385-99 (USA99b)); assay: ELISA on irradiated WNV; IgG1 supernatant diluted 1:125 (printed 1.125)
[23] = target: West Nile virus strain USA99b (strain 385-99), whole virus (West Nile virus strain 385-99 (USA99b)); remark: listed apart in the source

B1: CR4361 (antibody, V domains shown)
VH: EVQLVQSGAEVKKPGESLKISCKASGFSFSTYWIGWVRQMPGKGLEWMGIIYPADSDTRYSPSFQGQVTISADKSISTAYLQWSSLKASDTAMYYCARLRGPYYDFWNGYRETHDAFNVWGQGTMVTVSS
VL: DVVMTQSPDSLAVSLGERATINCKSSQNILDNSDNKNFLAWYQQKPGQPPKLLIYWASARESGVPDRFSGSGSGTDFTLTISSLQAEDVALYYCQQYYNTPITFGQGTRLEIKR
[1]
  PRNT50: 2.03 µg/mL
  PRNT90: > 100 µg/mL

B2: CR4353 (antibody, V domains shown)
VH: QVQLVESGGGVVQPGRSLRLSCAASGFTFSNYAMHWVRQAPGKGLEWVAVISYDGGNKYYADSVKGRFTMSRDNSKNTLYLQMNSLRAEDTAVYYCARDFWSGYSMVDSYYYYMDVWGQGTTVTVSS
VL: ETTLTQSPGTLSLSPGERATLSCRASQSVSNTFLAWYQQKPGQAPRLLIYGASSRATGIPDRFSGSGSGTDFTLTISRLEPEDFAAYYCQQYGSSLTFGPGTKVDIKR
[2]
  Kd: 6.5 nM
[1]
  PRNT50: 0.026 µg/mL
  PRNT90: 36.4 µg/mL
[3]
  OD 492nm: 0.595 OD 492nm
[4]
  OD 492nm: 0.734 OD 492nm
[5]
  OD 492nm: 1.17 OD 492nm
[6]
  OD 492nm: 1.33 OD 492nm
[7]
  OD 492nm: 1.42 OD 492nm
[8]
  OD 492nm: 1.43 OD 492nm
[9]
  OD 492nm: 1.55 OD 492nm
[10]
  OD 492nm: 1.57 OD 492nm
[11]
  OD 492nm: 0.003 OD 492nm
[12]
  OD 492nm: 1.07 OD 492nm

B3: CR4374 (antibody, V domains shown)
VH: QITLKESGPTLVKPTQTLTLTCTFSGFSLSTSGVGVGWIRQPPGKALEWLAVIYWNDDKLYRPSLKSRLTITKDTSKNQVVLTMTKMDPVDTATYYCAHRHRYYDISGYYRLFSDAFDIWGQGTMVTVSS
VL: QSVLTQPPSVSGAPGQRVTISCTGSSSNIGAGYDVHWYQQLPGTAPKLLIYGNSNRPSGVPDRFSGSKSGTSASLAITGLQAEDEADYYCQSYDSSLSGSVFGGGTKLTVLG
[2]
  Kd: 56 nM
[1]
  PRNT50: 0.18 µg/mL
  PRNT90: 0.95 µg/mL
[13]
  PRNT50: 0.14
  PRNT90: 2.9
[14]
  PRNT50: 0.11
  PRNT90: 1.36
[15]
  PRNT50: 0.12
  PRNT90: 4.12
[16]
  PRNT50: 0.29
  PRNT90: 3.92
[17]
  PRNT50: 0.03
  PRNT90: 0.22
[18]
  PRNT50: 0.17
  PRNT90: 0.82
[3]
  OD 492nm: 0.458 OD 492nm
[4]
  OD 492nm: 0.729 OD 492nm
[5]
  OD 492nm: 1.24 OD 492nm
[6]
  OD 492nm: 1.45 OD 492nm
[7]
  OD 492nm: 1.5 OD 492nm
[8]
  OD 492nm: 1.58 OD 492nm
[9]
  OD 492nm: 1.65 OD 492nm
[10]
  OD 492nm: 1.72 OD 492nm
[19]
  OD 492nm: 1.69 OD 492nm
[20]
  OD 492nm: 2.32 OD 492nm
[21]
  OD 492nm: 2.27 OD 492nm
[11]
  OD 492nm: 0.003 OD 492nm
[12]
  OD 492nm: 0.997 OD 492nm
[22]
  OD 492nm: 2.12 OD 492nm

B4: CR5080 (antibody, V domains shown)
VH: QITLKESGPTLVKPTQTLTLTCTFSGFSLSTSGVGVGWIRQPPGKALEWLAVIYWNDDKLYRPSLKSRLTITKDTSKNQVVLTMTKMDPVDTATYYCAHRHRYYDISGYYRLFSDAFDIWGQGTMVTVSS
VL: QSVLTQPPSVSGAPGQRVTISCTGSSSNIGAGYDVHWYQQLPGTAPKLLIYGNSNRPSGVPDRFSGSKSGTSASLAITGLQAEDEADYYCQSYDSSLSGWAFGGGTKLTVLG
[23]
  Kd: 2.7 nM
[1]
  PRNT50: 0.016 µg/mL
  PRNT90: 0.08 µg/mL

B5: CR5088 (antibody, V domains shown)
VH: QITLKESGPTLVKPTQTLTLTCTFSGFSLSTSGVGVGWIRQPPGKALEWLAVIYWNDDKLYRPSLKSRLTITKDTSKNQVVLTMTKMDPVDTATYYCAHRHRYYDISGYYRLFSDAFDIWGQGTMVTVSS
VL: QSVVTQPPSVSGAPGQRITISCTGSSSNIGAGYDVHWYQQLPGTAPKFLIYGNSNRPSGVPDRFSGSKSGTSASLAITGLQAEDEADYYCQSYDSSLSGWVFGGGTKLTVLG
[23]
  Kd: 1.7 nM
[1]
  PRNT50: 0.017 µg/mL
  PRNT90: 0.087 µg/mL

B6: CR5085 (antibody, V domains shown)
VH: QITLKESGPTLVKPTQTLTLTCTFSGFSLSTSGVGVGWIRQPPGKALEWLAVIYWNDDKLYRPSLKSRLTITKDTSKNQVVLTMTKMDPVDTATYYCAHRHRYYDISGYYRLFSDAFDIWGQGTMVTVSS
VL: QSVVTQPPSVSGAPGQRVTISCTGSSSNIGAGYDVHWYQQLPGTAPKLLIYGNSNRPSGVPDRFSGSKSGTSASLAITGLQAEDETDYYCQSYDSSLNGWVFGGGTKLTVLG
[23]
  Kd: 3.7 nM
[1]
  PRNT50: 0.015 µg/mL
  PRNT90: 0.077 µg/mL

B7: CR5074 (antibody, V domains shown)
VH: QITLKESGPTLVKPTQTLTLTCTFSGFSLSTSGVGVGWIRQPPGKALEWLAVIYWNDDKLYRPSLKSRLTITKDTSKNQVVLTMTKMDPVDTATYYCAHRHRYYDISGYYRLFSDAFDIWGQGTMVTVSS
VL: QSVLTQPPSVSGAPGQRVTISCTGSSSNIGTGYDVHWYQQLPGTAPKLLIYADTNRPSGVPDRFSGSKSGTSASLAITGVQAEDEADYYCQSYDTSLTGWVFGGGTKVTVLG
[23]
  Kd: 3.9 nM
[1]
  PRNT50: 0.013 µg/mL
  PRNT90: 0.067 µg/mL
